This is an account of results in patent US20100254995A1.

Experiment [1] has as its target human TNFR1 (soluble recombinant protein) (human) (UniProt P19438). The experiment is described as follows: phage ELISA, plate coated with 1 nM TNFRI, anti-M13-HRP; phage pre-treated 1 h room temp with 1 mg/ml trypsin; phage input 1.13E+10.
For experiment [2] the target is unchanged. The experiment in a line: phage ELISA, plate coated with 1 nM TNFRI, anti-M13-HRP; phage pre-treated 1 h room temp with 10 ug/ml trypsin; phage input 1.13E+10.
The target is the same in experiment [3]. The experiment in a line: phage ELISA, plate coated with 1 nM TNFRI, anti-M13-HRP; phage pre-treated 1 h room temp with 100 ug/ml trypsin; phage input 1.13E+10.

Sequence of human TNFR1 (soluble recombinant protein) (human) (P19438 41-201 limits assumed): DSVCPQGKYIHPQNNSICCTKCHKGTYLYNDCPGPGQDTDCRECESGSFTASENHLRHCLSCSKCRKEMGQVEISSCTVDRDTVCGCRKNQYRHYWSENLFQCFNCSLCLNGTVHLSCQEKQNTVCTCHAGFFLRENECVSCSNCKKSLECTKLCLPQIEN

As to DOM1h-131, the phage ELISA signal (read-out not named) in experiment [1] is 0.183; in experiment [2], 0.86; in experiment [3], 0.284.
